Positions count from the first letter of the chain named.
T1: Recombinant human IL-23 receptor (IL-23R) extracellular domain (ECD) protein (human, UniProt Q5VWK5 24-355)
T1 construct: also called human IL-23R ECD; hu IL-23R ECD
T1 sequence: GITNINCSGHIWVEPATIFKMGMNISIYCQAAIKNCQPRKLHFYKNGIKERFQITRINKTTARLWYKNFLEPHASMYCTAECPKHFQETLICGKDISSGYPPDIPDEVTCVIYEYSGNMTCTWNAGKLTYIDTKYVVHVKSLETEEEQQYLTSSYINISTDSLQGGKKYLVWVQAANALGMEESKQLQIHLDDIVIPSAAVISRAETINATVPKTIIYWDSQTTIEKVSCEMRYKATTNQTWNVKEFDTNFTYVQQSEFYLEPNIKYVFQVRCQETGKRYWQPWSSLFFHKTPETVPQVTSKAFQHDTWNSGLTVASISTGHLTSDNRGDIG

T2: rat IL-23R extracellular domain (ECD) protein (rat)
T2 construct: also called rat IL-23R ECD; F1LX96 amino acids 24-354
T2 chain: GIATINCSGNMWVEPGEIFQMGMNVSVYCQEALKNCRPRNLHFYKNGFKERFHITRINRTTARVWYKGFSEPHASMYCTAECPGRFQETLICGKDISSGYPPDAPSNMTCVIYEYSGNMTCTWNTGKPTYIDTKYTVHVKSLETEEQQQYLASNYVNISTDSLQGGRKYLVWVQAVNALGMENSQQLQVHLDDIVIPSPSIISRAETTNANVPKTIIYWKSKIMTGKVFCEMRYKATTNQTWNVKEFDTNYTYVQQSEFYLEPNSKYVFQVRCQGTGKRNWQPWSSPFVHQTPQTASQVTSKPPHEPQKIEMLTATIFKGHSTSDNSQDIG

B1: I23RB36 (antibody, mouse IgG2a, kappa, V domains shown)
VH: QIQLVQSGAELVKPGASVKLSCTTSGFNIKDTYIHWMKQRPEQGLEWIGRIDPANGNTIYASKFQGKATLTTDTSSNTAYMLLSSLTSGDTAVYYCTRGTSWFAYWGQGTTVTVSS
VL: DIVMTQSPKSMSMSVGERVTLSCKASENVGTSVSWFQQKPEQSPKLLIYGASNRYTGVPDRFTGSGSATDFTLTISSVQAEDLADYHCGQSYSYPRTFGGGTKLEIKR
notes: mouse immunization; mouse IgG2a/kappa
B2: I23RB188 (antibody, mouse IgG2a, kappa, V domains shown)
VH: QIQLVQSGPELKKPGETVKISCKASGYTFTNYGMNWVKQAPGKGLKWMGWINTYTGAPTYADDFKGRFAFSLETSASTAYLQINNFKNEDTATYFCARGNGYPYYYGINYWGQGTSVTVSS
VL: DVQMIQSPSSLSASLGERVSLTCRASQEISGNLSWLQQKPDGTIKRLIYAASTLDSGVPKRFSGSRSGSDYSLTISSLESEDFADYYCLQYASYPWTFGAGTRLEIKR
notes: as for B1
B3: I23RB27 (antibody, mouse IgG2a, kappa, V domains shown)
VH: QVQLKESGPDLVQPSQTLSLTCTVSGFSLTSYGVHWVRQPPGKGLEWVGTLGWDDKKSYNSALKSRLSISRDTSKSQVFLKLSSLQTEDTAMYYCTKEDVSYAMDFWGQGTTLTVSS
VL: DIQMTQSPTSLAVSLGQRATISCRASESVEYYGTSLMHWYQQKPGQPPKLLIYAASNVESGVPARFSGSGSGTDFSLNIHPVEEEDIAMYFCQQGKKVPWTFGAGTKLEMKR
notes: as for B1
B4: I23RB162 (antibody, mouse IgG2a, kappa, V domains shown)
VH: EFQLQQSGPELVKPGASVKMSCKASGYTFTNYVMHWVKQKPGQGLEWIGYINPYNDGTKYNEKFKGKATLTSDKSSSTAYMELSSLTSEDSAVYYCARSRTGTRWYFDVWGAGTTVTVSS
VL: DIVMTQSQKFMSTSVGDRVSVTCKASQNVGTNVAWYQQKPGQSPKALIYSASYRYSGVPDRFTGSGSGTDFTLTISNVQSEDLAEYFCQQYNSYPFTFGSGTKLEIKR
notes: as for B1
B5: I23RB169 (antibody, mouse IgG2a, kappa, V domains shown)
VH: QIQLVQSGPELKKPGETVKISCKASGYTFTTVGMQWVQKMPGKGFKWIGWINTHSGEPKYTDDFKGRFAFSLETSASTAYLQISNLKSEDTATYFCARSSALTGAFAYWGQGTLVTVSS
VL: DIKMTQSPASLAVSLGQRATISCRASKSVSTSDYSYMHWYQQKPGQPPKLLIYLASNLESGVPARFSGSGSGTDFTLNIHPVEEEDAATYYCQHSRELPRTFGAGTKLELKR
notes: as for B1
B6: I23RB168 (antibody, mouse IgG2a, kappa, V domains shown)
VH: QIQLVQSGPELVKPGASVKMSCKTSGYTFTDYYINWVKQRPGQGLEWIGWIYPAINNTNYNEKFKGKATLTVDTSSRTAYMQLNSLTSEDSAVYFCAISRKPYFDYWGQGTTLTVSS
VL: DIQMTQSSSSFSVSLGDRVTITCKASEDLYNRLAWYQQKPGNAPRLLISGATSLGTGVLSRFSGSGSGKDYTLSITSLQTEDVATYYCQQYWSIPWTFGAGTKLELKR
notes: as for B1
B7: I23RB182 (antibody, mouse IgG2a, kappa, V domains shown)
VH: EVQLQQSGPGLVKPSQSLSLTCSVTGYSITSGYFWNWLRQFPGSKLEWMGFIDNDGSNDYNPSLKNRISITRDTSKNQFFLRLNSVTTEDTATYYCARGRLGFFDSWGPGTTLTVSS
VL: DIVMTQSPAIMSASLGEKVTMSCRASSSVNYMYWYQQKSDASPKLWIYYTSNLAPGVPARFSGSGSGNSYSLTISSMEGEDAATYYCQQFTNSPWTFGAGTKLELKR
notes: as for B1
B8: I23RB166 (antibody, mouse IgG2a, kappa, V domains shown)
VH: DVQLQESGPGLVKPSQTVSLTCTVTGYSITNGNHWWNWIRQVSGSKLEWIGYIRSSGSTDSNPSLKSRISITRDTSKNQLFLQLNSVTAEDIATYYCARERLRLRWSYFDYWGQGTTLTVSS
VL: DIVMTQSHKFMSTSVGARVSITCKASQDVSTAVAWYQQKPGQSPKLLIYSASYRYTGVPDRFTGSGSGTDFTFTISSVQAEDLAVYYCQQHYSTPRTFGGGTKLEIKR
notes: as for B1
B9: I23RB160 (antibody, mouse IgG2a, kappa, V domains shown)
VH: QVQLKESGPDLVKPSQSLSLTCTVTGYSITSGYNWHWIRQFPGNKLEWMGYIHYSSGTIYNPSLKSRISITRDTSKNQFFLQLNSVTTEDTGTYYCARQLGLKAMDYWGQGTSVTVSS
VL: B8 VL with A17D, S30R, Y49H, A80V, S93T, R96Y, G100S
notes: as for B1
B10: I23RB150 (antibody, mouse IgG2a, kappa, V domains shown)
VH: QIQLVQSGPELKKPGETVKISCKASAYTFTNYGMNWVKQAPGKGLKWMGWIKTNTGEPTYAEEFKGRFAFSLETSASTAYLQINNLKNEDTATYFCARSRQLGLRYYFDYWGQGTTLTVSS
VL: B8 VL with A17G, K45R, Y86F, R96Y, G100S, K103R
notes: as for B1
B11: I23RB156 (antibody, mouse IgG2a, kappa, V domains shown)
VH: QVQLKESGPGLVAPSQSLSITCTVSGFSLTSYAINWVRQPPGKGLEWLGVIWTGGGTNYNSVFKSRLSISKDNSKSQIFLKMISLQTDDTARYYCARNRDYSNYRWYFDVWGAGTTLTVSS
VL: B8 VL with A17D, Q42R, S52F, S76G, T94I, R96L, G100A, I106L
notes: as for B1
B12: I23RB30 (antibody, mouse IgG2a, kappa, V domains shown)
VH: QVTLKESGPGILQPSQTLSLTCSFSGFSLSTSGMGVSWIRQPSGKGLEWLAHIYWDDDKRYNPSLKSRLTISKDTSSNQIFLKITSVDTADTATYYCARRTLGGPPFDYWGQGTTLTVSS
VL: DIVLTQSQRFMSTSVGDRVSITCKASQNIRTAVAWYQQKPGQSPKALIYLPSNRHTGVPDRFTGSGSGTDFTLTISNVQSEDLADYFCLQHWNYPLTFGAGTKLELKR
notes: as for B1
B13: I23RB153 (antibody, mouse IgG2a, kappa, V domains shown)
VH: EVKLVESGGGLVQPGGSLKLSCAASGFTFSSDTMSWVRQTPEKRLELVAEISSNGGSTYHIDTVKGRFTISRDNAKNTLYLQMSSLKSEDTAMYYCASPGYPWFAYWGQGTTVTVSA
VL: DIVMTQSHRFMSTSVGERVSITCKASQDVGNAVAWYQQKPGQSPKLLIYWTSTRHNGVPDRFTGSGSGTDFTLTISNVQGEDLADYFCQQYNRYPLTFGSGTKLEIKR
notes: as for B1
B14: I23RB155 (antibody, mouse IgG2a, kappa, V domains shown)
VH: QVQLKESGPGLVKPSQSLSLTCSVTGYSITSGHSWNWIRQFPGNKLEWMGYISYDGTNDYNPSLKNRISITRDTSKNQFFLNLNSVTTEDTVTYYCARGGGYYGGTYRVFADWGQGTTLTVSS
VL: QIVLSQSPASLAVSLGQRATISCRTSESVDTYGNSFIYWYQQKPGQPPKLLIYRASNLESGIPARFSGSGSRTDFTLTINPVEADDVATYYCQQGNKDPYTFGSGTKLEMKR
notes: as for B1

Target: T1, Recombinant human IL-23 receptor …
Assay: SPR Biacore 8K, supernatant, analysis 1
Summary of the method: (§1)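 mAbs captured (~150 RU) on Biacore 8K; human or rat IL-23R ECD injected at 0.8–500 nM (5-fold series) at 25 °C in HBS-P+ with 100 μg/ml BSA. Association 3 min at 50 μL/min, dissociation 30 min. Ka, Kd and KD from Langmuir 1:1 fit.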

Binder | Kd | koff | kon
B1 | 13.7 nM | 0.00118 s⁻¹ | 86400 M⁻¹ s⁻¹
B2 | 13.3 nM | 0.0013 s⁻¹ | 98200 M⁻¹ s⁻¹
B3 | 11.4 nM | 0.00372 s⁻¹ | 325000 M⁻¹ s⁻¹
B4 | 44.6 nM | 0.0237 s⁻¹ | 531000 M⁻¹ s⁻¹
B5 | 91.3 nM | 0.0116 s⁻¹ | 128000 M⁻¹ s⁻¹
B6 | 0.279 nM | 0.000118 s⁻¹ | 424000 M⁻¹ s⁻¹
B7 | 49.8 nM | 0.00194 s⁻¹ | 38900 M⁻¹ s⁻¹
B8 | 43.1 nM | 0.0193 s⁻¹ | 447000 M⁻¹ s⁻¹
B9 | 16.9 nM | 0.00955 s⁻¹ | 567000 M⁻¹ s⁻¹
B10 | 96.5 nM | 0.0329 s⁻¹ | 341000 M⁻¹ s⁻¹
B11 | 0.403 nM | 0.000218 s⁻¹ | 542000 M⁻¹ s⁻¹
B12 | 46.2 nM | 0.0101 s⁻¹ | 220000 M⁻¹ s⁻¹
B13 | 1.64 nM | 0.000226 s⁻¹ | 138000 M⁻¹ s⁻¹
B14 | < 0.0784 nM | < 2.89e-05 s⁻¹ | 369000 M⁻¹ s⁻¹

Target: T2, rat IL-23R extracellular domain (ECD) …
Assay: SPR Biacore 8K, supernatant
Summary of the method: as §1

Binder | binding result | Kd | koff | kon
B1 | no binding (tested: 500 nM) |  |  | 
B2 | no binding (tested: 500 nM) |  |  | 
B3 | no binding (tested: 500 nM) |  |  | 
B4 | no binding (tested: 500 nM) |  |  | 
B5 | no binding (tested: 500 nM) |  |  | 
B6 | no binding (tested: 500 nM) |  |  | 
B7 | no binding (tested: 500 nM) |  |  | 
B8 | no binding (tested: 500 nM) |  |  | 
B9 | no binding (tested: 500 nM) |  |  | 
B10 | no binding (tested: 500 nM) |  |  | 
B11 | no binding (tested: 500 nM) |  |  | 
B12 |  | 306 nM | 0.00909 s⁻¹ | 29800 M⁻¹ s⁻¹
B13 |  | 92.1 nM | 0.00548 s⁻¹ | 59500 M⁻¹ s⁻¹
B14 | no binding (tested: 500 nM) |  |  | 

Target: T1, Recombinant human IL-23 receptor …
Assay: SPR Biacore 8K, supernatant, analysis 2
Summary of the method: as §1

Binder | Kd | koff | kon
B1 | 2.18 nM | 0.00129 s⁻¹ | 592000 M⁻¹ s⁻¹
B2 | 18.9 nM | 0.00151 s⁻¹ | 79800 M⁻¹ s⁻¹
B3 | 18.7 nM | 0.00416 s⁻¹ | 223000 M⁻¹ s⁻¹
B4 | 62.2 nM | 0.0216 s⁻¹ | 347000 M⁻¹ s⁻¹
B5 | 34.8 nM | 0.00427 s⁻¹ | 123000 M⁻¹ s⁻¹
B6 | 0.422 nM | 0.000155 s⁻¹ | 368000 M⁻¹ s⁻¹
B7 | 43.7 nM | 0.00394 s⁻¹ | 90200 M⁻¹ s⁻¹
B8 | 44.1 nM | 0.00942 s⁻¹ | 214000 M⁻¹ s⁻¹
B9 | 13.8 nM | 0.0142 s⁻¹ | 1.02e+06 M⁻¹ s⁻¹
B10 | 112 nM | 0.0376 s⁻¹ | 334000 M⁻¹ s⁻¹
B11 | 0.588 nM | 0.000259 s⁻¹ | 441000 M⁻¹ s⁻¹
B12 | 35.9 nM | 0.00763 s⁻¹ | 212000 M⁻¹ s⁻¹
B13 | 2.33 nM | 0.000318 s⁻¹ | 137000 M⁻¹ s⁻¹
B14 | < 0.121 nM | < 2.89e-05 s⁻¹ | 239000 M⁻¹ s⁻¹
